From patent publication US20140170171A1 come the findings set out here.

Experiment [1] addresses total mouse IgG (Sigma-Aldrich) (mouse). The experiment is described as follows: 20 ng TGF-beta + 1 ug soluble total mouse IgG, PBS, 42 C, 5 min; Sepharose G-50 spin column eluate assayed by TGF-beta ELISA.
Experiment [2] deals with Mouse IgG1 (eBioscience) (mouse). The experiment is described as follows: Sephadex G-50 gel filtration of the TGF-beta/IgG mixture (1:10 molar), fractions assayed by TGF-beta ELISA. (SEC sorts molecules by how far they enter the pores of the column.)
The target in experiment [3] is Mouse IgG2a (eBioscience) (mouse). The description is as above.
Experiment [4] addresses total mouse IgG (Sigma-Aldrich) (mouse). The experiment is described as follows: 20 ng TGF-beta + 1 ug soluble total mouse IgG, PBS, room temperature, 5 min; Sepharose G-50 spin column eluate assayed by TGF-beta ELISA. On the technique in general: ELISA stands for enzyme-linked immunosorbent assay.
Experiment [5] shares this target. The experiment can be described thus: 20 ng TGF-beta + 1 ug soluble total mouse IgG, 0.5x PBS with NaOH to pH 11, room temperature, 5 min; Sepharose G-50 spin column eluate assayed by TGF-beta ELISA.
Experiment [6] concerns the target TGF-beta receptors on mink lung epithelial cells (ATCC CCL-64) (mink). The experiment is described as follows: cell-based or functional assay.
Experiment [7] addresses rat total IgG (Sigma-Aldrich) (rat). The experiment can be described thus: ELISA, rat total IgG on plate, 10 ng TGF-beta in 100 uL 0.1M Tris pH 7.4 (0 mM NaCl), 18 h 4 C, bound TGF-beta detected with TGF-beta 1 ELISA kit.
For experiment [8] the target is unchanged. The experiment can be described thus: ELISA, rat total IgG on plate, 10 ng TGF-beta in 100 uL 10% glycerol in PBS, 18 h 4 C, bound TGF-beta detected with TGF-beta 1 ELISA kit.
Experiment [9] has the same target. The experiment is described as follows: ELISA, rat total IgG on plate, 10 ng TGF-beta in 100 uL PBS, 18 h 4 C, bound TGF-beta detected with TGF-beta 1 ELISA kit.
Experiment [10] shares this target. The experiment can be described thus: ELISA, rat total IgG on plate, 10 ng TGF-beta in 100 uL 10% glycerol in 0.1M Tris pH 7.4, 18 h 4 C, bound TGF-beta detected with TGF-beta 1 ELISA kit.

“Transforming growth factor-beta 1 (Peprotech) (from UniProt P01137 279-390) (ligand)”: the Net Absorbance (450) (absorbance (450)) is 0.117 in experiment [1], 0.193 in experiment [4] and 0.558 in experiment [5]. For the same substance, the percent of TGF-beta eluting in the IgG-bound fraction in experiment [2] and in experiment [3] was 40 to 50% in each case.
For “purified mouse TIGG (Transforming Growth Factor-beta-bound IgG), intact”, in experiment [6], the Cell Viability (OD450/Control OD450) at 0.25 pg/mL TIGG (OD450/Control OD450) amounted to 0.965, the Cell Viability (OD450/Control OD450) at 2.5 pg/mL TIGG (OD450/Control OD450) is 0.924, the Cell Viability (OD450/Control OD450) at 25 pg/mL TIGG (OD450/Control OD450) stood at 0.897 and the Cell Viability (OD450/Control OD450) at 250 pg/mL TIGG (OD450/Control OD450) amounted to 0.817. In addition, the Cell Viability (OD450/Control OD450) at 2500 pg/mL TIGG (OD450/Control OD450) in experiment [6] was 0.678.
As to “TGF-beta (Leinco Technologies, St. Louis, Mo.) (ligand)”, the Net Absorbance (450) (absorbance (450)) is 1.02 in [7], 0 in experiment [8], 0.18 in experiment [9] and 0.7 in [10].
For the substance Dissociated (Treated) TIGG, in [6], the Cell Viability (OD450/Control OD450) at 0.25 pg/mL TIGG (OD450/Control OD450) came out at 0.621, the Cell Viability (OD450/Control OD450) at 2.5 pg/mL TIGG (OD450/Control OD450) was found to be 0.645, the Cell Viability (OD450/Control OD450) at 25 pg/mL TIGG (OD450/Control OD450) came to 0.651 and the Cell Viability (OD450/Control OD450) at 250 pg/mL TIGG (OD450/Control OD450) came to 0.651. Also, in experiment [6], the Cell Viability (OD450/Control OD450) at 2500 pg/mL TIGG (OD450/Control OD450) is 0.616.
